Results from US20140162285A1, “Methods of Modulating Vesicular Trafficking” (The General Hospital Corporation, priority 2009, published 2014).

Target: T1, ARNO(wt) (Homo sapiens, UniProt Q99418)
T1 construct: i) 1-400aa, full length ARNO(wt); GST (N); made in house; host or cells: E. coli BL21(DE3)
T1 sequence (Q99418 1-400): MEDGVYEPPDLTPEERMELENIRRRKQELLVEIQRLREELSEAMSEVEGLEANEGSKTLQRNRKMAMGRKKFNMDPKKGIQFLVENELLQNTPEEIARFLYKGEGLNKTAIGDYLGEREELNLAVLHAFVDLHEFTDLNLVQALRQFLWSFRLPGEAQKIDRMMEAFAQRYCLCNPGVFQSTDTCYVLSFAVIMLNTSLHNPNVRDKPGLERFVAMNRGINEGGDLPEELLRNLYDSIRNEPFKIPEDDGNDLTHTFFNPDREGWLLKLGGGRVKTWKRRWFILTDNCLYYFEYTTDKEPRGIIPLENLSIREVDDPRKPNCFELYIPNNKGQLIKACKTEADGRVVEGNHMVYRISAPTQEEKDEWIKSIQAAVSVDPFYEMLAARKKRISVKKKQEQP
Test: surface plasmon resonance (BIAcore T100) kinetic analysis a2N(wt)/ARNO(wt)
Format: binding
Excerpt: 6A, Kinetic analysis and estimation of a dissociation constant (KD) for interaction between full-length a2N(wt) and ARNO(wt) proteins. Sensorgrams for the binding of recombinant a2N-6His immobilized as ligand on the sensor chip, with various concentrations of 6His-ARNO as analyte are shown as follows. The responses on the sensorgram are designated in resonance units (RU). […] 6B, Kinetic analysis and estimation of KD for interaction between a2N-01 peptide and Sec7-domain of ARNO. Sensorgrams for the binding of a2N-01 peptide immobilized as ligand on the sensor chip, with various concentrations of Sec7-domain as analyte are shown as follows. The responses on the sensorgram are designated in resonance units (RU).
All reagents, including buffers, sensor chips and the amine coupling kit, were obtained from GE Healthcare. For kinetic analysis of the binding of ARNO(wt) with a2N(wt), purified 6His-a2N (5 μg/ml) in 10 mM sodium acetate (pH 4.0) was immobilized at 80 response units (RU) on a CM4 sensor chip using an amine coupling kit according to the manufacturer's instructions. The same kit was used to perform blank immobilization to create a reference surface on the same chip. Samples of purified GST-ARNO(wt) at concentrations ranging from 0.25-4 μM were injected for 6 min over active and reference surfaces at a flow rate of 30 μl/min in NBS-EP, 1 mM DTT running buffer (10 mM Hepes, pH 7.4, 150 mM NaCl, 3 mM EDTA, 0.05% Surfactant P20, 1 mM DTT). For kinetic analysis of the binding of the ARNO Sec7-domain with a2N-01 peptide, neutravidin (10 μg/ml) in 10 mM sodium acetate (pH 5.0) was immobilized at about 1200 RU on two surfaces of a CM4 sensor chip using an amine coupling kit. Following that, biotinylated a2N-01 peptide (50 RU) and amine-PEG3-biotin (25 RU) were irreversibly captured by neutravidin to create active and a reference surfaces, respectively. Purified Sec7-6His recombinant protein was injected for 3.5 min over active and reference surfaces at concentrations ranging from 0.05-1 μM and a flow rate of 100 μl/min in NBS-EP, 1 mM DTT running buffer. Dissociation of the complexes was monitored for 10 min, and then the regeneration of the sensor surfaces was performed using 0.05% SDS with 1-min injection in the running buffer at a 20 μl/min flow rate. […] The dissociation constant (KD) was determined from the kon/koff values. To estimate affinity of interaction the corresponding free energy of binding ΔGbind=RTlnKD was calculated as previously described (Marles et al., Mol Cell 14 (2004) 813-823).
Specific concentration-dependent responses were obtained for both interactions. […] Calculated free energies for a2N(wt)/ARNO(wt) and a2N-01/Sec7 binding are −8.86 kcal mol^−1 and −8.81 kcal mol^−1, respectively (Marles et al., Mol Cell 14 (2004) 813-823). […]

[1] = a2N immobilized, ARNO as analyte, 25° C.

B1: a2N: recombinant N-terminal cytosolic tail, amino acid residues 1-402 of mouse V-ATPase a2-subunit (protein)
chain: MGSLFRSESMCLAQLFLQSGTAYECLSALGEKGLVQFRDLNQNVSSFQRKFVGEVKRCEELERILVYLVQEITRADIPLPEGEASPPAPPLKHVLEMQEQLQKLEVELREVTKNKEKLRKNLLELVEYTHMLRVTKTFLKRNVEFEPTYEEFPALENDSLLDYSCMQRLGAKLGFVSGLIQQGRVEAFERMLWRACKGYTIVTYAELDECLEDPETGEVIKWYVFLISFWGEQIGHKVKKICDCYHCHIYPYPNTAEERREIQEGLNTRIQDLYTVLHKTEDYLRQVLCKAAESVCSRVVQVRKMKAIYHMLNMCSFDVTNKCLIAEVWCPEVDLPGLRRALEEGSRESGATIPSFMNTIPTKETPPTLIRTNKFTEGFQNIVDAYGVGSYREVNPALFTII
modifications: left off: small tags and cut ends
notes: recombinant N-terminal cytosolic tail, amino acid residues 1-402 of mouse V-ATPase a2-subunit
Kd (a2N immobilized on sensor chip, ARNO as analyte, 25° C., bivalent analyte isotherm, read-out: dissociation constant KD): 0.313 µM
association rate constant (kon) [1]: 4.77×10^3 M^−1S^−1
dissociation rate constant (koff) [1]: 14.95×10^−4 S^−1
calculated free energy of binding (ΔGbind=RTlnKD): -37.1 kJ/mol
